Experimental data as given in PMC6704068.

Molecular target: Saccharomyces cerevisiae alcohol dehydrogenase (Saccharomyces cerevisiae) (UniProt P00330)
Test: SEC + native MS

stoichiometry N: 4
Substance: Saccharomyces cerevisiae alcohol dehydrogenase (from UniProt P00330 1-348) (enzyme)
